The text below walks through data of US7271245B2, “Methods and compositions for inhibition of metastasis” (The Scripps Research Institute, priority 2004, dated 2007).

Where a chain is given by its changes, count along the chain named.

Assay [1] concerns human breast cancer cell lines, isolated from patient blood samples. The assay is described as follows: Growth of breast cancer cell cultures in presence of scFv. It is filed as cell-based. The note with it: 2 μM scFv, 4 days after seeding.
In assay [2] the test system is Integrin αIIβ3 mediated adhesive platelet functions. The assay is described as follows: Platelet adhesion and thrombus formation during blood perfusion. The class given is cell-based, human. The note with it: 3 μM scFv. On the procedure: Tumor cell arrest during bloodflow. Breast cancer cell arrest during blood flow and interaction with platelets was measured as described. Felding-Habermann, et al., Proc. Natl. Acad. Sci. U.S.A 98: 1853-1858, 2001. Felding-Habermann et al., J. Biol. Chem. 271: 5892-5900, 1996. Briefly, tumor cells were suspended in human blood anticoagulated with 50 nM PPACK and perfused over a collagen I matrix at a venous wall shear rate of 50 s^−1, 2 dynes/cm^2. Adhesive events and cell interactions were visualized and recorded by fluorescence video microscopy and quantified by image acquisition at 30 predefined positions followed by computerized image analysis (MetaMorph, Universal Imaging). Tumor cells were stained with hydroethidine (red fluorescence) (20 μg/ml, 30 min, 37° C.), washed, and mixed with blood containing 10 μM mepacrine (green fluorescence). Blood cells, tumor cells, and platelets acquired green fluorescence and were visualized at 488/515 nm (excitation/emission). Tumor cells were identified by their unique red fluorescence at 543/590 nm. To test inhibition, tumor cells were incubated with 3 μM scFv for 5 min at 37° C., then mixed into blood, scFv added to 3 μM final concentration and perfused immediately.
In the circulation, metastatic tumor cells are intensely exposed to a cancer patient's immune surveillance, encountering potential function blocking antibodies like Bc-12 and Bc-15. […]

Assay [3] relates to BMS human breast cancer cells. The assay is described as follows: Haptotactic tumor cell migration toward fibrinogen (transwell). It is filed as cell-based. The conditions noted are these: 2 μM scFv, 16 hrs at 37° C. The method, then:
FIGS. 3A, 3B, 3C, 3D, 3E. scFv Bc-12 and Bc-15 inhibit αvβ3 mediated adhesive breast cancer cell functions. (A) Adhesion of BMS human breast cancer cells to fibrinogen (Fg), vitronectin (VN) or type I collagen (Col I) in the absence or presence of 3 μM Bc-12, Bc-15 or their RGE mutants Mut-12, Mut-15, compared to 200 μM GRGDSPK peptide (SEQ ID NO: 11). Protein coating concentrations: 10 μg/ml (VN, Col I) or 20 μg/ml (Fg). Adhesion time: 30 min at 37° C. (B) Effect of scFvs on haptotactic BMS cell migration toward a fibrinogen substrate (16 hrs at 37° C. in transwell chambers with or without 2 μM Bc-12, Bc-15 or their RGE mutants Mut-12 or Mut-15, compared to 200 μM GRGDSPK peptide) (SEQ ID NO: 11). (C) Effect of scFvs on breast cancer cell arrest during blood flow. Metastatic BMS cells, labeled with hydroethidine, were suspended in human blood (anticoagulated with 50 nM PPACK) and perfused over a collagen I matrix at a venous wall shear rate of 50 s^−1. Under these conditions, breast cancer cells arrest by αvβ3 mediated binding to adherent, thrombus forming platelets. Tumor cell adhesion was quantified by image acquisition at 30 predefined positions during blood flow. Left: representative images of platelet signal (thrombi, green fluorescence) and tumor cell signal (red fluorescence) at identical x,y positions. Right: Number of arrested tumor cells in the presence of 3 μM non-function blocking anti αv scFv Bc-20 or function blocking anti αvβ3 scFvs Bc-12 or Bc-15. (D) scFv Bc-15 is internalized by human breast cancer cells and reduces cell proliferation. Left: confocal images of BMS cells incubated for 4 hrs with FITC-Bc-15 at 4° C. (binding) versus 37° C. (allowing internalization). Right: Phase contrast images of BMS cell cultures 4 days after seeding in the presence of 2 μM RGE containing scFv Mut-15, or RGD containing Bc-15. […]
Cell adhesion and migration. Tumor cell adhesion under stationary conditions was analyzed as detailed earlier (19). […] Haptotactic tumor cell migration toward fibrinogen was analyzed in transwell chambers as detailed earlier. […]

B1: Bc-12: patient derived human scFv antibody against activated αvβ3 with RGD motif in CDR-H3; cDNA ATCC PTA-6303 (protein)
scFv: MAQVQLVQSGAEVKKPGASVKVSCKASGYTFSNYGITWVRQAPGQGLEWMGWINNGNTHYAQKFQGRVTMTTDTSTSTAYMELRSLRSDDTAVYYCARDPRGDDEPYWGQGTLVTVSSGGGGSGGGGSGGGGSEIVLTQSPLSLPVTLGQPASISCRSSQNLVYSDGNTYLSWFQQRPGQSPRRLIYKVSNRDSGVPDRFSGSGSGTDFTLKISRVEAEDIGVYYCMQGTHWPPRTFGQGTKVEIKRGLGGLVDYKDDDDK
Take B1: the “growth of breast cancer cell lines” value in assay [1] is listed as “retarded”. Moreover, the adhesive platelet functions result in assay [2] is recorded as “not affected”. In addition, the fibrinogen directed migration entry in assay [3] is listed as “inhibited BMS human breast cancer cell migration almost completely”.

B2: Mut-12: RGE containing mutant version of scFv Bc-12 (protein)
chain: B1 scFv with D103E
In the case of B2, the “growth of breast cancer cell lines” value in assay [1] was “no effect”. Also, in assay [3], the fibrinogen directed migration entry is on record as “only a minor effect”.
